Measured values from US20140303084.
Substitutions are numbered along the chain they refer to.

Experiments:
[1] = test system: T1, GVEDRQLTCLASSCWVFSRHSV
T1 sequence: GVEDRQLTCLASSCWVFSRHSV

[2] = test system: T2, MeLys-LTCLASYCWLF
T2 sequence: KLTCLASYCWLF

[3] = test system: T3, KLTCLASYCW-Nle-F
T3 sequence: KLTCLASYCWXF

[4] = test system: T4, RRAPGKLQCLASYCWLFWT
T4 sequence: RRAPGKLQCLASYCWLFWT

[5] = test system: T5, RRAPGKLTCLASYCWLF WTGWS RDTASHASDS
T5 sequence: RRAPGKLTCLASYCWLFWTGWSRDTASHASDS

[6] = test system: T6, SKQGRPISPDrRAAGKLTCLASYCWLFWTGI
T6 sequence: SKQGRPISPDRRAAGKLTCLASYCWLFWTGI

[7] = test system: T7, RRAPGKLTCLASYCWLF WTGLA PGRGQGGVAG
T7 sequence: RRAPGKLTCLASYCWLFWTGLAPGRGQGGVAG

[8] = test system: T8, RRAPGCLTALASYAWLCWTGIA-COOH
T8 sequence: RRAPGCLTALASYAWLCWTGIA

[9] = test system: T9, compound 6
T9 sequence: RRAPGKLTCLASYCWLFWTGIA

[10] = test system: T10, LTCLASYCWLF
T10 sequence: LTCLASYCWLF

[11] = test system: T11, KLTCKASYCWLF
T11 sequence: KLTCKASYCWLF

[12] = test system: T12, Lys(palmitoyl)-PEG16-Lys(PEG2-Biotin)-PEG16-rRAPGKLTCLASYCWLFWTGIA
T12 sequence: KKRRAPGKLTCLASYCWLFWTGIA

[13] = test system: T13, RRAPGKLTCL-MeAla-SYCWLFWTGIA
T13 sequence: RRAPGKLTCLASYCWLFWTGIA

[14] = test system: T14, KLT-Glu-LASY-Dab-WLF
T14 sequence: KLTELASYXWLF

[15] = test system: T15, SKQGRPISSDrRAAGKSTCLASYCWLFWTGIA
T15 sequence: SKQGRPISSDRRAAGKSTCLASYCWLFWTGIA

[16] = test system: T16, RRAPGKLTCLASYCWLF GSGIS LSRAPESAAP
T16 sequence: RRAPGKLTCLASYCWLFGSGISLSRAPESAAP

[17] = test system: T17, PRIRTVGPGSRSASGKLTCLASYCWLFLTGIA
T17 sequence: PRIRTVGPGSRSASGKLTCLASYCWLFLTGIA

[18] = test system: T18, TQWAQVGPRG RRAQG KLTCLASYCWLFWTGIA
T18 sequence: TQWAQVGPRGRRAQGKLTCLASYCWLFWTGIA

[19] = test system: T19, KLT-Glu-LASY-Lys-WLF
T19 sequence: KLTELASYKWLF

[20] = test system: T20, RRAPGKLT-Orn-LASY-Asp-WLFWTGIA-COOH
T20 sequence: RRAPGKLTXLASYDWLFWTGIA

[21] = test system: T21, RRAKGKLQCLASYCWLFWTGIA
T21 sequence: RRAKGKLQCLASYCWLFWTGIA

[22] = test system: T22, VSGTGRLTCVASYCWMFQLGIF
T22 sequence: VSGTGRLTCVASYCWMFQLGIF

[23] = test system: T23, AQLRRKLTCLASYCWLFGFFSP
T23 sequence: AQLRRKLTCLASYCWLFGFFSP

[24] = test system: T24, CGGGLVPRGGG-RRAPGKLT-Asp-LASY-Lys-WLFWTGIA
T24 sequence: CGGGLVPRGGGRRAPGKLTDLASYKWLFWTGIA

[25] = test system: T25, compound 2
T25 sequence: KLTCLASYCWLF

[26] = test system: T26, RRAPGKLTCLASYCWLF WTGLS RYQWQAQEDV
T26 sequence: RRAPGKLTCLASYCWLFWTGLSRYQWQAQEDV

[27] = test system: T27, KLTCLAAYCWLF
T27 sequence: KLTCLAAYCWLF

[28] = test system: T28, RRAPGKLTCLASYCWLF WAGYP SLRGSLLVGV
T28 sequence: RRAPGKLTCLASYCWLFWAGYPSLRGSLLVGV

[29] = test system: T29, KITCLASYCWLF
T29 sequence: KLTCLASYCWLF

[30] = test system: T30, RRAPGKLTCLASYCWLFWtGIA
T30 sequence: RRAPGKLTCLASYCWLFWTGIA

[31] = test system: T31, KL-MeThr-CLASYCWLF
T31 sequence: KLTCLASYCWLF

[32] = test system: T32, rRAPGKSTCLASYCWLFWTGIA
T32 sequence: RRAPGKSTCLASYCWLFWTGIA

[33] = test system: T33, RRAPGKLQCLASYCWLFKTGIA
T33 sequence: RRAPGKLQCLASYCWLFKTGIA

[34] = test system: T34, SKQGRPISSDrRASGKSTCLASYCWLFWTGIA
T34 sequence: T15 sequence with A14S

[35] = test system: T35, RRAPGKK(PEG2-Biotin)TCLASYCWLFWTGIA
T35 sequence: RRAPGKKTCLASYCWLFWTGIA

[36] = test system: T36, PEG16-Lys(PEG2-Biotin)-PEG16-rRAPGKLTCLASYCWLFWTGIA
T36 sequence: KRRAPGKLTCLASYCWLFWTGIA

[37] = test system: T37, RRAPGKLTCLASYCWLF VTGTA HAPRVAPAPA
T37 sequence: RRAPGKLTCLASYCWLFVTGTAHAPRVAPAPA

[38] = test system: T38, RRAPGKLTCLASYCWLF STPVA RKSLRRHQPT
T38 sequence: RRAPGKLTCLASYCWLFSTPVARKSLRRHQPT

[39] = test system: T39, GASGRRRTCVASYCLLFQSGLP
T39 sequence: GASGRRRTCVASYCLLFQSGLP

[40] = test system: T40, QRAGRVARLH RRAPN KLTCLASYCWLFWTGIA
T40 sequence: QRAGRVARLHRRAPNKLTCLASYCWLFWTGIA

[41] = test system: T41, SRIRTVSPGSRSASGKSTCLASYCWLFWTGIA
T41 sequence: T17 sequence with P1S, G7S, L17S, L28W

[42] = test system: T42, rRAAGKATCLASYCWLFATGIA
T42 sequence: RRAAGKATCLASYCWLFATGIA

[43] = test system: T43, PRIRTVSPGSRSASGKLTCLASYCWLFWTGIA
T43 sequence: T17 sequence with G7S, L28W

[44] = test system: T44, RRAPGKLTClASYCWLFWTGIA
T44 sequence: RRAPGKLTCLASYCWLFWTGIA

[45] = test system: T45, Orn-LTCLASYCWLF
T45 sequence: XLTCLASYCWLF

[46] = test system: T46, RRAPGKLTCLASYCWLFWTGIK(PEG2-Biotin)
T46 sequence: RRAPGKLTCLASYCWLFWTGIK

[47] = test system: T47, R-MeArg-APGKLTCLASYCWLFWTGIA
T47 sequence: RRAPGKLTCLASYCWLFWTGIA

[48] = test system: T48, SKQGRPISPArRAAGKLTCLASYCWLFWTGIA
T48 sequence: T15 sequence with S9P, D10A, S17L
Wherever Vmax (mOD/min min), with phospholipids is given: test concentration or dose not given here.
Wherever Vmax (mOD/min min), without phospholipids is given: test concentration or dose not given here.

## human Factor IXa
[1]
  Vmax, FXa generation assay; (++) means 1-2: (++)
[2]
  Vmax, FXa generation assay; (++) means 1-2: (++)
[3]
  Vmax, FXa generation assay: > 2
[4]
  Vmax, FXa generation assay: > 2
[5]
  Vmax, FXa generation assay: > 2
[6]
  Vmax, FXa generation assay: > 3
[7]
  Vmax, FXa generation assay: > 3
[8]
  Vmax, FXa generation assay: > 0.1
[9]
  Vmax, FXa generation assay with hFIXa: > 2
[10]
  Vmax, FXa generation assay; (++) means 1-2: (++)
[11]
  Vmax, FXa generation assay: > 3
[12]
  Vmax, FXa generation assay: > 3
[13]
  Vmax, FXa generation assay; (++) means 1-2: (++)
[14]
  Vmax, FXa generation assay; (++) means 1-2: (++)
[15]
  Vmax, FXa generation assay: > 3
[16]
  Vmax, FXa generation assay: > 3
[17]
  Vmax, FXa generation assay: > 3
[18]
  Vmax, FXa generation assay: > 3
[19]
  Vmax, FXa generation assay; (++) means 1-2: (++)
[20]
  Vmax, FXa generation assay: > 2
[21]
  Vmax, FXa generation assay; (++) means 1-2: (++)
[22]
  Vmax, FXa generation assay; (++) means 1-2: (++)
[23]
  Vmax, FXa generation assay; (++) means 1-2: (++)
[24]
  Vmax, FXa generation assay: > 2
[25]
  Vmax (mOD/min min), with phospholipids: 4.22 mOD/min min
  Vmax (mOD/min min), without phospholipids: 3.05 mOD/min min
  Vmax, FXa generation assay: > 3
  Vmax, FXa generation assay with hFIXa: > 3
[26]
  Vmax, FXa generation assay: > 2
[27]
  Vmax, FXa generation assay; (++) means 1-2: (++)
[28]
  Vmax, FXa generation assay: > 3
[29]
  Vmax, FXa generation assay: > 2
[30]
  Vmax, FXa generation assay; (++) means 1-2: (++)
[31]
  Vmax, FXa generation assay; (++) means 1-2: (++)
[32]
  Vmax, FXa generation assay; (++) means 1-2: (++)
[33]
  Vmax, FXa generation assay: > 0.2
[34]
  Vmax, FXa generation assay: > 3
[35]
  Vmax, FXa generation assay: > 2
[36]
  Vmax, FXa generation assay: > 3
[37]
  Vmax, FXa generation assay: > 3
[38]
  Vmax, FXa generation assay: > 3
[39]
  Vmax, FXa generation assay: > 0.1
[40]
  Vmax, FXa generation assay: > 2
[41]
  Vmax, FXa generation assay: > 3
[42]
  Vmax, FXa generation assay; (++) means 1-2: (++)
[43]
  Vmax, FXa generation assay: > 3
[44]
  Vmax, FXa generation assay; (++) means 1-2: (++)
[45]
  Vmax, FXa generation assay; (++) means 1-2: (++)
[46]
  Vmax, FXa generation assay; (++) means 1-2: (++)
[47]
  Vmax, FXa generation assay; (++) means 1-2: (++)
[48]
  Vmax, FXa generation assay: > 3
